This note sets out measurements from patent US20250313627A1 (FUSE BIOTHERAPEUTICS, published 2025).

By EC50 is commonly meant the concentration giving half of the maximal effect. A low value points to a more potent agent. A word on the Kd: it is the concentration at which binding is half-saturated. Usually kon stands for a measure of how fast the partners come together. As usually defined, the koff is the first-order rate constant of dissociation.

Experiment [1] concerns the target T1, human ROR1 (Receptor Tyrosine Kinase-Like Orphan Receptor 1) on the cell surface (human, UniProt Q01973 30-937).
T1 construct: whole, on cells; engineered into B16-F10 (high density) and LS174T (low density) cells; also called B16-F10-ROR1-H; LS174T-ROR1-L
Description: flow cytometry on MDA-MB-231 ROR1 high cells (about 500,000 ROR1 per cell), secondary antibody to the IgG1 Fc. The procedure: (§1) Binding of 2A11 (black line), 5A1 (dark grey line) and VHH8 (medium grey line) were tested in TCE format 12A. The commercial ROR1 specific Ab reported to bind the ROR1-Ig domain 2A2 (light grey line), served as the positive control and anti-HEL (dotted black line) served as the negative control. To better visualize binding of each test article to the three cells lines, we plotted MFI on the y-axis for each test article for HEK-293 cells (negative control; FIG. 4I), HEK-293 cells transfected with full length human ROR1 (FIG. 4J) and HEK-293 cells transfected with the ROR1 Ig domain linked to the cell surface via the GPI linker from CD59 (FIG. 4K).
(§2) Adherent target cells were collected by brief TrypLE treatment while suspension cells were directly collected. Collected cells were washed once with PBS by centrifugation at 500×g for 5 minutes at room temperature and added to V-bottom 96-well plate (200,000-300,000 cells per well). To prepared Live/Dead fixable red, one vial of powder was dissolved into 50 uL of DMSO to make stock solution and then diluted 1 uL of stock Live/Dead fixable red in 1 mL of PBS to prepare the working solution. 100 uL of Live/Dead fixable red working buffer was then added to the cell in the V-bottom 96-well plate (200,000-300,000 cells per well) and incubated for 15 minutes at room temperature. After the 15-minute incubation, the cells were washed twice with PBS by centrifugation at 500 g for 5 minutes at room temperature. The cells were then cultured with antibodies at different concentrations in 100 uL of Biolegend staining buffer at 4° C. for 45 minutes. After the 45-minute incubation with primary antibody, the cells were washed with PBS by centrifugation at 500 g for 5 minutes at room temperature. The cells were then cultured with PE-Cy7-conjugated mouse-anti-human IgG secondary antibody in Biolegend staining buffer at 4° C. for 45 minutes. […] The samples were then analyzed on Cytek flow cytometer.

Experiment [2] has as its target T1, human ROR1 (Receptor Tyrosine …). Kind of experiment: flow cytometry on MDA-MB-231 ROR1 normal cells (about 35,000 ROR1 per cell), secondary antibody to the IgG1 Fc. The protocol:
as §1, §2
(In general: In flow cytometry, cells or beads pass a laser one at a time.)

Experiment [3] shares this target. Description: flow cytometry on MDA-MB-231 ROR1 low cells (about 17,000 ROR1 per cell), secondary antibody to the IgG1 Fc. The protocol: as §1, §2
Experiment [4] has as its target T2, recombinant His tagged human ROR1 (human, UniProt Q01973 30-403, limits assumed).
T2 construct: Analyte in the BLI assay; also called Human ROR1-His; recombinant ROR1
Kind of experiment: BLI (Octet), FUSE protein loaded on the biosensor, His tagged ROR1 in solution. The procedure: (§3) As shown in FIGS. 5A-5D, the binding affinities (KD) of TCEs for ROR1 were assessed. We examined the magnitude by which several TCEs and mutants thereof bind to recombinant ROR1. Kinetic binding graphs were generated via Bio-Layer Interferometry (BLI) using an Octet system. For each TCE, the biosensor tips were coated with FUSE proteins at 15 μg/ml and probed with either recombinant His tagged ROR1 at concentrations ranging from 100 pM to 10 μM. […] The binding affinity (KD), on rate (k-on) and off rate (k-dis), are summarized for ROR1 in FIG. 5D.
(§4) Antibodies were prepared in 1×PBS with 0.02% Tween-20 with the final concentration of 15 ug/ml. Human ROR1-His or CD3e-His protein were also prepared, and serial diluted (4-fold dilution ranging from 400 nM to 0.098 nM) in 1×PBS with 0.02% Tween-20. The biosensors were pre-moistened in 200 uL of 1×PBS with 0.02% Tween-20 for 10 minutes. Meanwhile, Octet BLI system (ForteBio) was prewarmed for 30 minutes and the flow rate was set to 1000 rpm. The biosensors (Anti-hIgG Fc Capture biosensor) were soaked in 250 uL of 1×PBS with 0.02% Tween-20 for 60 seconds at 30° C. to get an initial baseline reading. After the 60-second baseline reading, the biosensors were exposed to testing antibody for 300 seconds at 30° C. for the association between antibody and the biosensors (coupling antibody with biosensor). The biosensors with antibody were then exposed to human ROR1 or CD3e in 250 uL of 1×PBS with 0.02% Tween-20 at 30° C. for 300 seconds for the association reaction between antibody and human ROR1 or CD3e (association curve). After 300-second association reaction between antibody and antigen, the biosensors with antibody and antigen were then exposed to 250 uL of 1×PBS with 0.02% Tween-20 at 30° C. for 300 seconds for the dissociation reaction between antibody and […]. The binding affinity was calculated by the built-in data fitting algorithm.
A general note: In BLI a coated tip is dipped into the sample, and binding shifts an interference pattern.

Experiment [5] addresses T1, human ROR1 (Receptor Tyrosine …). Description: flow cytometry on MDA-MB-231 ROR1 super high cells (about 2,000,000 ROR1 per cell), secondary antibody to the IgG1 Fc. The procedure:
as §1, §2

Experiment [6] addresses T2, recombinant His tagged human ROR1. Kind of experiment: BLI (Octet), FUSE protein loaded on the biosensor, His tagged ROR1 in solution; column 'kdis(1/s)'. The procedure:
as §3, §4

In experiment [7] the target is T1, human ROR1 (Receptor Tyrosine …). Description: flow cytometry, B16-F10 cells expressing human ROR1 (high density). The procedure:
As shown in the tables below, mouse B16-F10 melanoma (Tables 9A-9F) or LS174T human colorectal adenocarcinoma (Tables 9G-9H) cells genetically engineered to express human ROR1 at high and low densities, respectively, were stained for flow cytometric analysis with 100 nM of humanized variants of the ROR1 specific VHHs, 5A1 or 2A11 in either a VHH-Fc format or the Ac13 format shown in FIG. 1. Cells were analyzed on a flow cytometer after the primary test article was fluorescently tagged with a goat anti human IgG-Fc specific PE secondary antibody. The positive control used was PE conjugated anti-human ROR1 clone 2A2. Negative controls included a PE labeled mouse IgG Ab, the secondary antibody only, the combination of a Hen Egg Lysozyme (HEL) specific antibody plus goat anti human IgG-Fc specific PE and Fluorescence Minus One (FMO). Other controls included the non-humanized version of 5A1-Fc (FUSE179), 2A11-Fc (FUSE112) and 5A1-Ac13 (FUSE488). Humanized variants were generated using computational design (FUSE489, FUSE497-498, FUSE563, FUSE569-570, and BI-HU9-VHH11-33), a yeast display library in which mutations were inserted into the Vernier zone residues of human framework indicated in GenBank accession number M99660 (FUSE524-525, FUSE589, FUSE597-598, FUSE537, FUSE661-662, BI-HU9-HK and BI-HU9-HK-1), and a second yeast display library in which mutations were inserted into the Vernier zone residues of human framework indicated in GenBank accession number AWH66715 and amino acid position 103 within CDR3 (FUSE559, FUSE590-596, BI-HU9-VH9-1, FUSE654-655 and FUSE661-662. Affinity matured variants of FUSE559 were also generated using computational design (F22158101-21; Table 9H).

T1 sequence (Q01973 30-937): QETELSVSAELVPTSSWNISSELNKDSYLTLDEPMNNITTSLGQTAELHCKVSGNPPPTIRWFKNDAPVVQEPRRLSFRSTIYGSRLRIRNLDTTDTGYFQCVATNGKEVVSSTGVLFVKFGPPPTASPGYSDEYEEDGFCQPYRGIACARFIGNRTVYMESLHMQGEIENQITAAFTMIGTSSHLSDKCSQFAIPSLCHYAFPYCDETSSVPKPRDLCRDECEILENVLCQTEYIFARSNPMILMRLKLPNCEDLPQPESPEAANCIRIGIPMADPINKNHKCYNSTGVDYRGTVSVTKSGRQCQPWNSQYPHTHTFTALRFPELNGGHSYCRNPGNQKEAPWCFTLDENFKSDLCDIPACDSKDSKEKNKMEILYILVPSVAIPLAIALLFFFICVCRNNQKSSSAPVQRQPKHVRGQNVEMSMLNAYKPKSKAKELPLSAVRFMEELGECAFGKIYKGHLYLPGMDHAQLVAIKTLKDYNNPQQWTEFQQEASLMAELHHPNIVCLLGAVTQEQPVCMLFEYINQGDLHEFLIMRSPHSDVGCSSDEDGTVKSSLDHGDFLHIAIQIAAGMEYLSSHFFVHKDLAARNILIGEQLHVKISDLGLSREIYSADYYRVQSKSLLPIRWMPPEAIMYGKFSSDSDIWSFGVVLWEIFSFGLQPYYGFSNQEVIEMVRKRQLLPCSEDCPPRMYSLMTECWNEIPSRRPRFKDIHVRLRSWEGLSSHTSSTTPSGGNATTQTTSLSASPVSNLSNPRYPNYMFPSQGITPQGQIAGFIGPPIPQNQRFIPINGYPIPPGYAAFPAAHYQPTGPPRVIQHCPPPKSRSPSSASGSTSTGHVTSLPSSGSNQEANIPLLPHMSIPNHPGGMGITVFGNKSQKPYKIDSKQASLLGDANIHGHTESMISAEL
T2 sequence (Q01973 30-403 limits assumed): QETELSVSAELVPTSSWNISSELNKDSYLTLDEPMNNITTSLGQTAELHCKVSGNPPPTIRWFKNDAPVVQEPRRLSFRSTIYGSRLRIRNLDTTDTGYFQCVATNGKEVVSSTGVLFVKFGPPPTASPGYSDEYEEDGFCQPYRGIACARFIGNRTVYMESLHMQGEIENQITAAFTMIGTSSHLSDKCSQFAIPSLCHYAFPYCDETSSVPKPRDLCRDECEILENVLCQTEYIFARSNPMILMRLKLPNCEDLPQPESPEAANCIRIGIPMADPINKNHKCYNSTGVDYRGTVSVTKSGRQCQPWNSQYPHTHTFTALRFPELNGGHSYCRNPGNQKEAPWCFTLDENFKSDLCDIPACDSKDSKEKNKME

B1: FUSE-211 (bispecific antibody, human IgG1, lambda, L234A L235A)
chain: QVQLQESGGGSVPAGGSLRLSCAASGSTYSANCMGWFRQAPGKEREEVASMSIRSGRTYYSDSVKGRFTISQDGSKNTLYLQLNSLKAEDTALYYCAAAYGGSRCVYNYRGQGTQVTVSSGGGGSGGGGSGGGGSQVQLQESGGGSVPAGGSLRLSCAASGSTYSANCMGWFRQAPGKEREEVASMSIRSGRTYYSDSVKGRFTISQDGSKNTLYLQLNSLKAEDTALYYCAAAYGGSRCVYNYRGQGTQVTVSSEPKSSDKTHTCPPCPAPEAAGGPSVFLFPPKPKDTLMISRTPEVTCVVVDVSHEDPEVKFNWYVDGVEVHNAKTKPREEQYNSTYRVVSVLTVLHQDWLNGKEYKCKVSNKALPAPIEKTISKAKGQPREPQVYTLPPSREEMTKNQVSLSCAVKGFYPSDIAVEWESNGQPENNYKTTPPVLDSDGSFFLVSKLTVDKSRWQQGNVFSCSVMHEALHNRFTQKSLSLSPGK
heavy: EVQLVESGGGLVQPGGSLRLSCAASGFTFSTYAMNWVRQAPGKGLEWVARIRSKYNNYATYYADSVKDRFTISRDDSKNTLYLQMNSLRAEDTAVYYCARHGNFGNSYVSWFAYWGQGTMVTVSSASTKGPSVFPLAPSSKSTSGGTAALGCLVKDYFPEPVTVSWNSGALTSGVHTFPAVLQSSGLYSLSSVVTVPSSSLGTQTYICNVNHKPSNTKVDKKVEPKSCDKTHTCPPCPAPEAAGGPSVFLFPPKPKDTLMISRTPEVTCVVVDVSHEDPEVKFNWYVDGVEVHNAKTKPREEQYNSTYRVVSVLTVLHQDWLNGKEYKCKVSNKALPAPIEKTISKAKGQPREPQVYTLPPSREEMTKNQVSLWCLVKGFYPSDIAVEWESNGQPENNYKTTPPVLDSDGSFFLYSKLTVDKSRWQQGNVFSCSVMHEALHNHYTQKSLSLSPGK
light: QAVVTQEPSLTVSPGGTVTLTCRSSTGAVTTSNYANWVQQKPGQAPRGLIGGTNKRAPGTPARFSGSLLGGKAALTLSGVQPEDEAEYYCALWYSNLWVFGGGTKLTVLGQPKAAPSVTLFPPSSEELQANKATLVCLISDFYPGAVTVAWKADSSPVKAGVETTTPSKQSNNKYAASSYLSLTPEQWKSHRSYSCQVTHEGSTVEKTVAPTECS
notes: Hole chain: 2A11-linker-2A11-Fc; knob chain: anti-CD3 Fab heavy chain-Fc; anti-CD3 light chain; also called format 11A incorporating 2A11
Regarding B1, the concentration for a half-maximal effect (EC50) in experiment [1] is 550 pM; in experiment [2], 450 pM; in experiment [3], 400 pM; in experiment [5] it was 190 pM. Also, in experiment [4], the equilibrium dissociation constant (Kd) amounted to 17000 pM. Also, in experiment [4], the on-rate constant (kon) is 135000 M⁻¹ s⁻¹. Further, the off-rate constant (koff) in experiment [6] amounted to 0.00229 s⁻¹.

B2: FUSE-598 (h5A1-HK6 Fc) (Fc fusion)
chain: EVQLLESGGGLVQPGGSLRLSCAASGYTNRLKCMGWFRQAPGKERELASISTGTGNTYYADSVKGRFTISQDGSKNTLYLQMNSLRAEDTAVYYCAADVRPDGTTCHYNSRGQGTLVTVSS
notes: VHH-Fc format; not shown: Fc of the VHH-Fc format
Turning to B2, the MFI in experiment [7] was determined as 9560.
